In patent US20240207421A1, “NERVE TARGETING PEPTIDES AND METHODS OF USE” (ALUME BIOSCIENCES, INC., priority 2020, published 2024) one finds Count data, which are given here for 55 molecules.

One test addresses T1, Human Nidogen-2 (Homo sapiens, UniProt Q14112).
T1 construct: purchased Novus NBP2-10365
T1 sequence (Q14112 31-1375): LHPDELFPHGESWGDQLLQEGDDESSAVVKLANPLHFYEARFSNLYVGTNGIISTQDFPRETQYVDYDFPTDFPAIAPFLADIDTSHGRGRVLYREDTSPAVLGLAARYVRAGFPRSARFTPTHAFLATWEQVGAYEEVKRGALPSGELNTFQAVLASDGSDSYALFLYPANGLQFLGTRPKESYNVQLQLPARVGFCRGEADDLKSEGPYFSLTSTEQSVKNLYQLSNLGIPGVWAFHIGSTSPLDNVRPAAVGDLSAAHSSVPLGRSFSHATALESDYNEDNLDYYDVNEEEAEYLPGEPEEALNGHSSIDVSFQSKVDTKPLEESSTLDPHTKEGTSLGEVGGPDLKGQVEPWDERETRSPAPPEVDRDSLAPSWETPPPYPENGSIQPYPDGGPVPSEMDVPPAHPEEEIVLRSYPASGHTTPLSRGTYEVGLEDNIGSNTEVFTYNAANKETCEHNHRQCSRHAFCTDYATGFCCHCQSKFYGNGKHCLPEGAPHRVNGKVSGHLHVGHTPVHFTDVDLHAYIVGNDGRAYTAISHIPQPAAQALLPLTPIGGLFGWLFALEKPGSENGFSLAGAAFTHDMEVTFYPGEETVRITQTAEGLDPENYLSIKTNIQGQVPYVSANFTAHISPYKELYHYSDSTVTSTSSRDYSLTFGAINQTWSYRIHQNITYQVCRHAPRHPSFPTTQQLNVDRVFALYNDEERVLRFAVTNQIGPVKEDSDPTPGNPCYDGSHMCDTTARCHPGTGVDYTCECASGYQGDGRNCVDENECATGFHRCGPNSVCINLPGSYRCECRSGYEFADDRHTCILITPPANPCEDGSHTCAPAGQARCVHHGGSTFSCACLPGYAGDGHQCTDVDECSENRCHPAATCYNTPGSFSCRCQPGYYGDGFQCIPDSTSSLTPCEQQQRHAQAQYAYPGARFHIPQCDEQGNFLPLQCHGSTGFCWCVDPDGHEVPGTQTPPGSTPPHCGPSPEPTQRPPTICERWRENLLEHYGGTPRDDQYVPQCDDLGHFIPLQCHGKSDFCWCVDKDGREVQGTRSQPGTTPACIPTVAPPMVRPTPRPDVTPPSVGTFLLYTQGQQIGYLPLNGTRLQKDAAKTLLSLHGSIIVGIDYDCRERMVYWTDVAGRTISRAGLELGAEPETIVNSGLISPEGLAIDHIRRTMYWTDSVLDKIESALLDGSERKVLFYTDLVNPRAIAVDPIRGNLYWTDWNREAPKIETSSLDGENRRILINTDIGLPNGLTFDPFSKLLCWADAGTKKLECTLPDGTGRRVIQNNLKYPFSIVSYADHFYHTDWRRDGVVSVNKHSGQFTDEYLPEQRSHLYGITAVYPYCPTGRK
The experiment in a line: Phage display library screening (Example 1, Power BI analysis), binding to Human Nidogen-2. The settings on record: R3 Nidogen-2, NextGen sequencing count of phage sequences distinct for this target. The text has this: Phage display library screens were used to identify peptides that bind to target proteins that are expressed in human nerves and could therefore be useful for systemic in-vivo labeling of nerves during fluorescence assisted surgery. Specifically, m13 phage libraries expressing 7 or 12 random amino acid peptides, or a cyclic peptide CX7C, on the N-terminus of the minor coat protein pIII (New England Biolabs) were processed through multiple rounds of selection for binding to target proteins expressed in peripheral nerve (Table 1).
The library was processed through up to 4 binding and wash cycles. For selection, phage libraries were incubated for up to 24 hours at 4° C. in 96 well plates that had been coated with one of the target proteins. Plates were then washed with PBS and phage were eluted using 0.2M glycine pH 2.0. Phage supernatants where then neutralized with Tris pH 9.0 prior to plating on TG1 bacteria and LB agar plates. Colonies were counted to determine titer followed by DNA preparation of pools of phage and NextGen sequencing. After rounds of selection, phage were pooled and amplified for iterative selection. Phage that were bound at each round were sequenced. NextGen sequencing of pools after 2, 3 and 4 rounds of selection was used to isolate candidate sequences that were analyzed further to identify those that specifically bound each unique target protein.
DNA sequences were trimmed of all vector amino acids and imported as a peptide dataset into Power BI. Power BI was used to identify phage display sequences for specific columns (corresponding to each target protein) in order to identify sequences that were distinct for each protein target. The Power BI code evaluated each individual sequence for each protein target against the sequences present in other protein targets in a test for uniqueness. Using the distinct flag, the Power BI code generated a filtered peptide dataset that excluded any peptide sequence that occur in more than one column which identified a specific protein target. This method therefore identified candidate peptide sequences showing selective binding to an individual target protein. Unique sequences in each column were sorted by individual counts such that the most selected sequences appeared at the top of the column.

Test [1] has as its target T2, Human Myelin Basic Protein (Homo sapiens, UniProt P02686). The experiment in a line: phage display R3, NGS count.
The target of test [2] is Human Nidogen-2 (human) (UniProt Q14112). As to the kind of experiment: phage display, NGS count.
Test [3] addresses T2, Human Myelin Basic Protein. The experiment in a line: phage display, NGS count.
Test [4] deals with Human Nidogen-2 (human) (UniProt Q14112). As to the kind of experiment: phage display R3, NGS count.
Test [5] deals with Human MPZ (human) (UniProt P25189). As to the kind of experiment: phage display R3, NGS count.
Test [6] shares this target. As to the kind of experiment: phage display, NGS count.
The target in test [7] is T2, Human Myelin Basic Protein. The experiment in a line: phage display, NGS count. This is another data set of the same source.
In test [8] the target is T2, Human Myelin Basic Protein. As to the kind of experiment: phage display R3, NGS count. This is another data set of the same source.

Human MPZ (human), sequence (P25189 30-153 limits assumed): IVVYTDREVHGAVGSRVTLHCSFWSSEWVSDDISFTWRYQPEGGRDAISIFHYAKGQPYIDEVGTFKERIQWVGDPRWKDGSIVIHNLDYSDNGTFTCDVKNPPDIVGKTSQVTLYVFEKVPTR
T2 sequence (P02686 135-304 limits assumed): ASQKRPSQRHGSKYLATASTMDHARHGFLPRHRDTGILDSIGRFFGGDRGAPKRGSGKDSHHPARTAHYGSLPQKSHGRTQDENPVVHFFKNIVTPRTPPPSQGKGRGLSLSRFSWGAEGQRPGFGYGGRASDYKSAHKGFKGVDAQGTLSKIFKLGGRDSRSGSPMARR

For the molecule “ACEPRSLANC (R3 Nidogen-2-binding peptide)”, the Count with Human Nidogen-2 stood at 11.
On the same count and under the same terms, with “ACGEGEADVC (R3 Nidogen-2-binding peptide)” the figure was 26; with “ACPENKSKHC (R3 Nidogen-2-binding peptide)”, 13; with “ACTVHKWDNC (R3 Nidogen-2-binding peptide)”, 11.
Turning to AGFPPNT (peptide), the Count in [1] was 10.
For the molecule ALYLPGR (peptide), the Count with Human Nidogen-2 (human) [2] worked out at 7.
Same read-out and setting: the result for ARMAFSL (peptide) reads 7; that for ATYNMSQ (peptide), 7.
Turning to AWSTSSV (peptide), the Count in test [1] and in [3] was 12 throughout.
For DGKNTSN (peptide), in [1], the Count stood at 10.
With DPWVMLR (peptide), the Count in test [1] and in test [3] was 11 each time.
EAMMHRN (peptide) had a Count with Human Nidogen-2 (human) [2] of 6.
On the same count and under the same terms, with GLRTMEP (peptide) the figure was 7.
GYWRNAL (R3 Nidogen-2-binding peptide) displayed a Count with Human Nidogen-2 of 11.
Molecule GYWRNAL (peptide) came in with a Count with Human Nidogen-2 (human) [4] of 11.
On to HPSTWHK (peptide), for which, in test [1], the Count is 18.
For the molecule HRLPWHH (peptide), the Count in test [1] and in test [3] was 10 each time.
As to HSRLPTP (peptide), the Count with Human Nidogen-2 (human) [2] stood at 13.
On to IKPPYTH (peptide), for which the Count amounted to 78 with Human MPZ (human) [5] and 82 with Human MPZ (human) [6].
KAIHPMRG (R3 Nidogen-2-binding peptide) showed a Count with Human Nidogen-2 of 11.
In the test with Human Nidogen-2 (human) [4], KAIHPMRG (peptide) gave a Count of 11.
Take KMAGHTV (peptide): the Count with Human MPZ (human) [5] was 51; with Human MPZ (human) [6] it was 54.
In the test with Human Nidogen-2 (human) [2], LHITPEV (peptide) had a Count of 6.
In test [1], LRPISHE (peptide) came in with a Count of 12.
As for LSIRGLT (peptide), in the test with Human Nidogen-2 (human) [2], the Count came to 6.
In the case of LSSPLSL (peptide), the Count with Human MPZ (human) [5] and in the test with Human MPZ (human) [6] was 56 in each case.
Turning to LVHPFHG (peptide), in the test with Human Nidogen-2 (human) [2], the Count worked out at 8.
In turn, MQTQGRV (peptide) gave a Count in test [1] of 12.
NDTKTPS (peptide) showed a Count in test [1] of 19.
For NILSQVN (peptide), in the test with Human Nidogen-2 (human) [2], the Count is 6.
QIGVLPS (peptide): the Count in [1] was determined as 11.
QLLESRT (peptide): the Count in the test with Human Nidogen-2 (human) [2] turned out to be 6.
On the same count and under the same terms, with QMDAKHM (peptide) the figure was 6.
With QNTGLKW (peptide), the Count in [1] and in test [3] was 11 throughout.
In the test with Human Nidogen-2 (human) [2], QTLRPKQ (peptide) had a Count of 6.
For the molecule SAHAKHH (peptide), the Count with Human MPZ (human) [5] is 51; in the test with Human MPZ (human) [6] it was 52.
Take SHSPGNK (peptide): the results for the Count with Human MPZ (human) [5] and with Human MPZ (human) [6] were 67 and 79, respectively.
Take SPDRTSL (peptide): the Count in [1] and in test [3] was 12 each time.
Regarding TESLFPH (peptide), the Count came out at 50 in the test with Human MPZ (human) [5] and 52 in the test with Human MPZ (human) [6].
Molecule TIASLLV (peptide) gave a Count in the test with Human Nidogen-2 (human) [2] of 6.
As to TMASPAK (peptide), the figures for the Count in the test with Human MPZ (human) [5] and with Human MPZ (human) [6] were 52 and 58, respectively.
In turn, TPWLPTI (peptide) returned a Count in the test with Human Nidogen-2 (human) [2] of 7.
On to TSPWELR (peptide), for which the results for the Count with Human MPZ (human) [5] and with Human MPZ (human) [6] were 107 and 108, respectively.
With VLKNNPT (peptide), the Count with Human MPZ (human) [5] was 86; in the test with Human MPZ (human) [6] it was 87.
In the case of VLTKPMP (peptide), the Count with Human MPZ (human) [5] and with Human MPZ (human) [6] was 56 each time.
Turning to WLAAGSQ (peptide), the Count with Human Nidogen-2 (human) [2] was determined as 6.
Turning to WPSISRP (peptide), the values for the Count with Human MPZ (human) [5] and with Human MPZ (human) [6] were 57 and 58, respectively.
On to WTMKPNY (peptide), for which the Count in [1] was found to be 13; in [3] it was 14.
On to YNHTMMY (peptide), for which the Count with Human Nidogen-2 (human) [2] came to 7.
In the case of LPMRILT, the Count in [7] and in test [8] was 16 each time.
In the case of EHGYYKV, the values for the Count in [7] and in [8] were 17 and 16, respectively.
ILLPSLN showed a Count in [8] of 13.
Still for that read-out and setting: the result for SKSDAWR reads 14; that for AITSRNA, 15; that for SVLRMLN, 16.
